5 molecules from US20210292422A1 (SURROZEN, published 2021) can be followed below.

The target in assay [1] is T1, LRP6e3e4 (UniProt O75581 631-1246).
T1 construct: domain: e3e4; also called LRP6 E3E4 domain
T1 sequence (looked up): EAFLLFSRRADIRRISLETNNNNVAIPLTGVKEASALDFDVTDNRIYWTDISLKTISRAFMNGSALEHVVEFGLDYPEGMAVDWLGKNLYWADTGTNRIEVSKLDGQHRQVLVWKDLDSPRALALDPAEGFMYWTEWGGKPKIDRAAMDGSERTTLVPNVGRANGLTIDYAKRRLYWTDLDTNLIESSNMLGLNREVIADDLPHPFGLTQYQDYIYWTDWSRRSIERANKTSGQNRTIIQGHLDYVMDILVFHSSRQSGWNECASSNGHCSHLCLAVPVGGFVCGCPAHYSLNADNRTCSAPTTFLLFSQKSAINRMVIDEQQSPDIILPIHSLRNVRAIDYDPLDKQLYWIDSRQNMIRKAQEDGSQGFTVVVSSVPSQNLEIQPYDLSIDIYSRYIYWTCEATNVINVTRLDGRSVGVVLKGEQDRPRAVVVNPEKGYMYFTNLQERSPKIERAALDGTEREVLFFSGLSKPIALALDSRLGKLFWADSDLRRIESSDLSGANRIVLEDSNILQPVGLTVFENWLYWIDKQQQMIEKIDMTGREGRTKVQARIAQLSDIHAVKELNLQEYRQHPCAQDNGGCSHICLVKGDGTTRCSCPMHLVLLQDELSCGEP
Put plainly: column 'Specificity (Clone name)' of the component table; method not given there.

For assay [2], the target named is T2, LRP6e1e2 (UniProt O75581 20-630).
T2 construct: domain: e1e2; also called LRP6 E1E2 domains
T2 sequence (looked up): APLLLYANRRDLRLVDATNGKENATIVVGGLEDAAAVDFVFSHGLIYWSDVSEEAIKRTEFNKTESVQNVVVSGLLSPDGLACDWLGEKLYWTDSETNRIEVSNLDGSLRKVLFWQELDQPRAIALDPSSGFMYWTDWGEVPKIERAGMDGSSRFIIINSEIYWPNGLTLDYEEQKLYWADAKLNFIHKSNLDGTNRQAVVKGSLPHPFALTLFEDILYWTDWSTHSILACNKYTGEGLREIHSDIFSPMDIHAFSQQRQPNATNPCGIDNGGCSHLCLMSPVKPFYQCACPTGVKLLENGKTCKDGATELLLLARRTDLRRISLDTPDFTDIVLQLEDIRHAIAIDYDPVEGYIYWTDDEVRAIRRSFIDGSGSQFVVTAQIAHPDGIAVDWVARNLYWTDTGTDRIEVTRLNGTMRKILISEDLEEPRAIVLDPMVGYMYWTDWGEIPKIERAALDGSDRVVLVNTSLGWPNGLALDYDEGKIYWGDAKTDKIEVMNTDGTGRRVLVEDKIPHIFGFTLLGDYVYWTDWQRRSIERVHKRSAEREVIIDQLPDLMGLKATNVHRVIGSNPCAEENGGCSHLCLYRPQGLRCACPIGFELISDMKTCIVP
The assay is described as above.

Assay [3] concerns the target Fzd7 CRD (UniProt O75084 44-163). The assay is described as follows: BLI (Octet Red 96), biotinylated Fzd7 CRD on SA biosensor. Here is the method: Following capture of biotinylated-Fzd7, the SA biosensor with captured biotinylated-Fzd7 was dipped into wells containing the relevant antibodies at 7 different concentrations in running buffer plus a well with only running buffer as a reference channel. KD was determined by global fitting.
A general note: Biolayer interferometry detects binding as a change in optical thickness at a sensor tip.

The target of assay [4] is Frizzled 7 (Fzd7) (UniProt O75084 44-163). The assay is described as follows: BLI (Octet), FIG. 15A.

B1: L2: antiLRP6E3E4 (G211) scFv (scFv)
scFv: EVQLVESGGGLVQPGGSLRLSCAASGFTFTSYYISWVRQAPGKGLEWVAEISPYSGSTYYADSVKGRFTISADTSKNTAYLQMNSLRAEDTAVYYCALRARPPIRLHPRGSVMDYWGQGTLVTVSSGSAASGSSGGSSSGADIQMTQSPSSLSASVGDRVTITCRASQDVSTAVAWYQQKPGKAPKLLIYSASFLYSGVPSRFSGSGSGTDFTLTISSLQPEDFATYYCQQSYTTPPTFGQGTKVEIK
notes: also called YW211.31.57
On to B1, for which the binding result in assay [1] is “binds”.

B2: L1: antiLRP6E1E2 (1115.3) scFv (scFv)
scFv: DVKLVESGGGLVKLGGSLRLSCAASGFSFSTSYMSWVRQTPEKRLELVAAINLNGGSTYYSDTVKGRFTISRDNAKNTLYLQMSSLKSEDTAFYYCASELAGYGTPFAYWGQGTLVTVSAGSAASGSSGGSSSGADIVLTQSPATLSVTPGDSVSLSCKASQSISYNLHWYQQKSHESPRLLIKYTSQSISGIPSRFSGSGSGTDFTLTINNVETEDFGMYFCQQSNSWPLTFGAGTKLEVK
Regarding B2, in assay [2], the binding result is reported as “binds”.

B3: 1291-3 (bispecific antibody, human IgG1, kappa, L234A L235A)
light: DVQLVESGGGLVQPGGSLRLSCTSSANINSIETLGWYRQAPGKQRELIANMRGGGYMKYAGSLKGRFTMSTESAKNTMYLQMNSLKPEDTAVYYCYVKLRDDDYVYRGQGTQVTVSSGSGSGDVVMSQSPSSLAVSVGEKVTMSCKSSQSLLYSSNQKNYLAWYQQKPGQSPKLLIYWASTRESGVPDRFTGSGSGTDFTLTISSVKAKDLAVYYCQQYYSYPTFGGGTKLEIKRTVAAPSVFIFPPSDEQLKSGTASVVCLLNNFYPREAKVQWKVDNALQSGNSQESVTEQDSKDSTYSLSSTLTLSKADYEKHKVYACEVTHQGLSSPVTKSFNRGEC
heavy: EVQLVESGGGLVKPGGSLKLSCAASGFTFSSYAMSWVRQTPEKRLEWVATISDGGSYTRYPDKLKGRFTISRDNAKNNLYLQMSHLKSEDTAMYYCARVGGRRDYFDYWGQGTTLTVSSASTKGPSVFPLAPSSKSTSGGTAALGCLVKDYFPEPVTVSWNSGALTSGVHTFPAVLQSSGLYSLSSVVTVPSSSLGTQTYICNVNHKPSNTKVDKKVEPKSCDKTHTCPPCPAPEAAGGPSVFLFPPKPKDTLMISRTPEVTCVVVDVSHEDPEVKFNWYVDGVEVHNAKTKPREEQYNSTYRVVSVLTVLHQDWLNGKEYKCKVSNKALGAPIEKTISKAKGQPREPQVYTLPPSREEMTKNQVSLTCLVKGFYPSDIAVEWESNGQPENNYKTTPPVLDSDGSFFLYSKLTVDKSRWQQGNVFSCSVMHEALHNHYTQKSLSLSPGK
In the case of B3, in assay [3], the binding result is given as “no binding”.

B4: F2 (R2H1) (scFv)
scFv: EVQLVESGGGLVQPGGSLRLSCAASGFNISSSYIHWVRQAPGKGLEWVAYIYSSYGSTYYADSVKGRFTISADTSKNTAYLQMNSLRAEDTAVYYCARASWYALDYWGQGTLVTVSSGSAASGSSGGSSSGADIQMTQSPSSLSASVGDRVTITCRASQSVSSAVAWYQQKPGKAPKLLIYSASSLYSGVPSRFSGSRSGTDFTLTISSLQPEDFATYYCQQYWYGVAPITFGQGTKVEIK
notes: also called antiFZD1,2,7
For the molecule B4, the binding result in assay [4] was “binds”.

B5: 1791-3 (bispecific antibody, human IgG1, kappa, L234A L235A)
light: DVQLVESGGGLVQPGGSLRLSCTSSANINSIETLGWYRQAPGKQRELIANMRGGGYMKYAGSLKGRFTMSTESAKNTMYLQMNSLKPEDTAVYYCYVKLRDDDYVYRGQGTQVTVSSGSGSGDIVMTQSPKSMSMSVGERVTLRCKASENVLNYVSWYQQKPEQSPKLLIYGASNRYTGVPDRFTGSGSATDFTLTISSVQAEDLADYHCGQSYRYPTFGAGTKLELKRTVAAPSVFIFPPSDEQLKSGTASVVCLLNNFYPREAKVQWKVDNALQSGNSQESVTEQDSKDSTYSLSSTLTLSKADYEKHKVYACEVTHQGLSSPVTKSFNRGEC
heavy: EVQPVESGGGLVQPKGSLKLSCAASGFTFNTYAMHWVRQAPGKGLEWVARIRSKSNNYAKNYDDSVKDRFTISRDDSQSMLYLQMNNLKTEDTAMYYCVRENYGGRFDYWGQGTTLTVSSASTKGPSVFPLAPSSKSTSGGTAALGCLVKDYFPEPVTVSWNSGALTSGVHTFPAVLQSSGLYSLSSVVTVPSSSLGTQTYICNVNHKPSNTKVDKKVEPKSCDKTHTCPPCPAPEAAGGPSVFLFPPKPKDTLMISRTPEVTCVVVDVSHEDPEVKFNWYVDGVEVHNAKTKPREEQYNSTYRVVSVLTVLHQDWLNGKEYKCKVSNKALGAPIEKTISKAKGQPREPQVYTLPPSREEMTKNQVSLTCLVKGFYPSDIAVEWESNGQPENNYKTTPPVLDSDGSFFLYSKLTVDKSRWQQGNVFSCSVMHEALHNHYTQKSLSLSPGK
Take B5: in assay [3], the binding result was “no binding”.
